Results reported in patent publication US10029000B2, “Uses of IL-12 in hematopoiesis” (University of Southern California, priority 2003, dated 2018).

How the values were obtained:
[1] = tested on: short-term hematopoietic stem cells (ST-HSCs); test: Colony forming units spleen day 12 assay (CFU-S12); assay type: in vivo, mice
Protocol: To determine the bone marrow cell subsets that are protected by IL-12 administration for the rescue phenomena, CFC and CFU-S12 assay were performed at different time post lethal dose radiation. Bone marrow cells were recovered from IL-12 treated or control animals immediately (day 0), or at day 7, 9, 10, 12, 14 and 21 post radiation for CFC and CFU-S12 assay. If progenitor cells are protected from IL-12 treatment (IL-12 was administered in this study at 24 hours before radiation), CFC and CFU-S12 colonies should be detected when cells were removed at day 0. However, bone marrow cells isolated at day 0, 7 post radiation give rise no CFC nor CFU-S12 colonies in both IL-12 treated and control animals. At day 10 post radiation, the bone marrow cells isolated from IL-12 treated mice start to give rise of CFU-S12 but no detectable CFC, which start to appear from IL-112 treated bone marrow isolated 12 days post radiation and fully recovered from bone marrow cells isolated 14 days post radiation, as shown in FIGS. 5A and 5B. […] The CFU-S12 colony forming cells and CFC cells at day 10 and day 14 post radiation may be derived from long-term repopulating stem cells rescued by IL-12 treatment. […]
For the CFU-spleen12 assay, 2×10^5 bone marrow cells as donors were transplanted into recipient mice which received lethal irradiation. […] Spleen colonies were counted.

[2] = tested on: long-term repopulating HSC; test: Secondary bone marrow transplantation of IL-12 rescued marrow; assay type: in vivo, mice (Ly5.2 donor, Ly5.1 recipient); conditions: donor derived T/B and M/G cells detected
From the text: FIG. 5D-F: Secondary bone marrow transplantation was employed to detect if IL-12 can protect long-term repopulating HSC. Six month after lethal dose radiation and IL-12 rescue, bone marrow cells from these mice (Ly 5.2) were isolated and transplanted to secondary lethally irradiated mice (Ly 5.1). Four months after transplantation, donor cells (Ly5.2) were examined in recipient's peripheral blood.
The following gives some further experimental details. Six months after the rescue from lethal dose radiation (IL-12 treated mice, C57BL/Ly5.2), whole bone marrow cells were isolated and 1×10^6 cells were transplanted to secondary lethally irradiated mice (C57BL/Ly5.1). 4 months after transplantation, blood cells were collected and stained with anti-Ly5.2 and anti-Mac-1/anti-Gr-lantibodies (5D), and anti-Ly5.2 and anti-CD3/anti-B220 antibodies (5E) and anti-Ly5.2 antibody (5F). […]
Ly5.2 strain mice rescued by IL-112 treatment before or after lethal irradiation were sacrificed after 6 months. […] 4 months after the transplantation, peripheral blood cells were analyzed for Ly5.2 cells (anti-Ly5.2 antibody conjugated with FITC) with T cell and B cell markers (anti-CD3 and anti-B220 antibody conjugated with PE) and with macrophage and granulocyte cell markers (anti-CD11b and anti-Gr1 antibody conjugated with PE) using FACS. […]

B1: IL-12: Recombinant murine interleukin 12, heterodimeric cytokine (p35+p40), purchased from R&D Systems or PeproTech (protein, UniProt P43431 23-215; P43432 23-335, looked up)
Interleukin-12 subunit alpha: RVIPVSGPARCLSQSRNLLKTTDDMVKTAREKLKHYSCTAEDIDHEDITRDQTSTLKTCLPLELHKNESCLATRETSSTTRGSCLPPQKTSLMMTLCLGSIYEDLKMYQTEFQAINAALQNHNHQQIILDKGMLVAIDELMQSLNHNGETLRQKPPVGEADPYRVKMKLCILLHAFSTRVVTINRVMGYLSSA
Interleukin-12 subunit beta: MWELEKDVYVVEVDWTPDAPGETVNLTCDTPEEDDITWTSDQRHGVIGSGKTLTITVKEFLDAGQYTCHKGGETLSHSHLLLHKKENGIWSTEILKNFKNKTFLKCEAPNYSGRFTCSWLVQRNMDLKFNIKSSSSSPDSRAVTCGMASLSAEKVTLDQRDYEKYSVSCQEDVTCPTAEETLPIELALEARQQNKYENYSTSFFIRDIIKPDPPKNLQMKPLKNSQVEVSWEYPDSWSTPHSYFSLKFFVRIQRKKEKMKETEEGCNQKGAFLVEKTSTEVQCKGGNVCVQAQDRYYNSSCSKWACVPCRVRS
B1 was tested, and the CFU-S12 activity ([1]; cells isolated the first 7 days post lethal radiation) was “did not give rise of CFU-S12”, the “time of full recovered CFU-S12 activity” value ([1]; lethal radiation, IL-12 24 hours before radiation) was 10 days post radiation and the “protection of long-term repopulating cells” value [2] was “protects long-term repopulating cells”.
